Data: the supplement of paper PMC11246515
± gives the standard deviation of the averaged measurements.

Assay: total protein half-life in vivo (active degradation + dilution); higher = more stable protein
[1] = E. coli NCM3722 delta-clpP delta-lon delta-hslV, growth: N-lim chemostat, doubling time 6 h
[2] = E. coli NCM3722 delta-clpP, growth: N-lim chemostat, doubling time 6 h
[3] = E. coli NCM3722 delta-hslV, growth: N-lim chemostat, doubling time 6 h
[4] = E. coli NCM3722 delta-lon, growth: N-lim chemostat, doubling time 6 h
[5] = E. coli NCM3722 delta-smpB, growth: N-lim chemostat, doubling time 6 h
[6] = wild type E. coli NCM3722, growth: C-lim chemostat, doubling time 3 h
[7] = wild type E. coli NCM3722, growth: C-lim chemostat, doubling time 6 h
[8] = wild type E. coli NCM3722, growth: C-lim chemostat, doubling time 12 h
[9] = wild type E. coli NCM3722, growth: N-lim chemostat, doubling time 6 h
[10] = wild type E. coli NCM3722, growth: N-lim chemostat, doubling time 12 h
[11] = wild type E. coli NCM3722, growth: P-lim chemostat, doubling time 6 h
[12] = wild type E. coli NCM3722, growth: P-lim chemostat, doubling time 12 h

Sequence | total protein half-life in vivo [1] [h] | total protein half-life in vivo [2] [h] | total protein half-life in vivo [3] [h] | total protein half-life in vivo [4] [h] | total protein half-life in vivo [5] [h] | total protein half-life in vivo [6] [h] | total protein half-life in vivo [7] [h] | total protein half-life in vivo [8] [h] | total protein half-life in vivo [9] [h] | total protein half-life in vivo [10] [h] | total protein half-life in vivo [11] [h] | total protein half-life in vivo [12] [h]
MMNPLIIKLGGVLLDSEEALERLFSALVNYRESHQRPLVIVHGGGCVVDELMKGLNLPVKKKNGLRVTPADQIDIITGALAGTANKTLLAWAKKHQIAAVGLFLGDGDSVKVTQLDEELGHVGLAQPGSPKLINSLLENGYLPVVSSIGVTDEGQLMNVNADQAATALAATLGADLILLSDVSGILDGKGQRIAEMTAAKAEQLIEQGIITDGMIVKVNAALDAARTLGRPVDIASWRHAEQLPALFNGMPMGTRILA [P0A6C8] | 4.97 ± 0.82 | 3.77 ± 0.19 | 3.36 ± 0.25 | 4.45 ± 0.17 | 3.02 ± 0.15 | 2.84 ± 0.045 | 5.19 ± 0.41 | 10.3 ± 3.4 | 3.404 ± 0.033 | 4.813 ± 0.046 | 4.58 ± 0.39 | 7.92 ± 0.16
MMNSTNKLSVIIPLYNAGDDFRTCMESLITQTWTALEIIIINDGSTDNSVEIAKYYAENYPHVRLLHQANAGASVARNRGIEVATGKYVAFVDADDEVYPTMYETLMTMALEDDLDVAQCNADWCFRETGETWQSIPTDRLRSTGVLTGPDWLRMGLSSRRWTHVVWMGVYRRDVIVKNNIKFIAGLHHQDIVWTTEFMFNALRARYTEQSLYKYYLHNTSVSRLHRQGNKNLNYQRHYIKITRLLEKLNRNYADKIMIYPEFHQQITYEALRVCHAVRKEPDILTRQRMIAEIFTSGMYKRLITNVRSVKVGYQALLWSFRLWQWRDKTRSHHRITRSAFNLR | 5.55 ± 0.4 | 0.858 | – | – | 0.809 ± 0.17 | – | – | – | – | – | 0.32 ± 0.2 | 0.789 ± 0.74
MMPQSLPDTTTPKRRFRWPTGMPQLVALLLVLLVDSLVAPHFWQVVLQDGRLFGSPIDILNRAAPVALLAIGMTLVIATGGIDLSVGAVMAIAGATTAAMTVAGFSLPIVLLSALGTGILAGLWNGILVAILKIQPFVATLILMVAGRGVAQLITAGQIVTFNSPDLSWFGSGSLLFLPTPVIIAVLTLILFWLLTRKTALGMFIEAVGINIRAAKNAGVNTRIIVMLTYVLSGLCAAIAGIIVAADIRGADANNAGLWLELDAILAVVIGGGSLMGGRFNLLLSVVGALIIQGMNTGILLSGFPPEMNQVVKAVVVLCVLIVQSQRFISLIKGVRSRDKT | – | – | – | – | – | – | – | 8.92 | – | – | – | –
MMQPSIKPADEHSAGDIIARIGSLTRMLRDSLRELGLDQAIAEAAEAIPDARDRLYYVVQMTAQAAERALNSVEASQPHQDQMEKSAKALTQRWDDWFADPIDLADARELVTDTRQFLADVPAHTSFTNAQLLEIMMAQDFQDLTGQVIKRMMDVIQEIERQLLMVLLENIPEQESRPKRENQSLLNGPQVDTSKAGVVASQDQVDDLLDSLGF [P0A9H9] | – | – | – | – | – | – | – | 2.6 | – | – | – | –
MMQTVLAKIVADKAIWVEARKQQQPLASFQNEVQPSTRHFYDALQGARTAFILECKKASPSKGVIRDDFDPARIAAIYKHYASAISVLTDEKYFQGSFNFLPIVSQIAPQPILCKDFIIDPYQIYLARYYQADACLLMLSVLDDDQYRQLAAVAHSLEMGVLTEVSNEEEQERAIALGAKVVGINNRDLRDLSIDLNRTRELAPKLGHNVTVISESGINTYAQVRELSHFANGFLIGSALMAHDDLHAAVRRVLLGENKVCGLTRGQDAKAAYDAGAIYGGLIFVATSPRCVNVEQAQEVMAAAPLQYVGVFRNHDIADVVDKAKVLSLAAVQLHGNEEQLYIDTLREALPAHVAIWKALSVGETLPAREFQHVDKYVLDNGQGGSGQRFDWSLLNGQSLGNVLLAGGLGADNCVEAAQTGCAGLDFNSAVESQPGIKDARLLASVFQTLRAY | 4.8 ± 0.34 | 4.62 ± 1 | 4.15 ± 0.2 | 5.01 ± 0.64 | 4.1 ± 0.18 | 2.91 ± 0.1 | 4.97 ± 0.14 | 7.713 ± 0.011 | 4 ± 0.086 | 6.392 ± 0.053 | 4.9 ± 0.078 | 9.51 ± 0.49
MMSLAWPLFRVTEQAALAAWPQTGCGDKNKIDGLAVTAMRQALNDVAFRGRVVIGEGEIDHAPMLWIGEEVGKGDGPEVDIAVDPIEGTRMVAMGQSNALAVMAFAPRDSLLHAPDMYMKKLVVNRLAAGAIDLSLPLTDNLRNVAKALGKPLDKLRMVTLDKPRLSAAIEEATQLGVKVFALPDGDVAASVLTCWQDNPYDVMYTIGGAPEGVISACAVKALGGDMQAELIDFCQAKGDYTENRQIAEQERKRCKAMGVDVNRVYSLDELVRGNDILFSATGVTGGELVNGIQQTANGVRTQTLLIGGADQTCNIIDSLH | 3.96 | – | – | – | – | – | – | – | – | – | – | –
MMSQPAKVLLLYAHPESQDSVANRVLLKPATQLSNVTVHDLYAHYPDFFIDIPREQALLREHEVIVFQHPLYTYSCPALLKEWLDRVLSRGFASGPGGNQLAGKYWRSVITTGEPESAYRYDALNRYPMSDVLRPFELAAGMCRMHWLSPIIIYWARRQSAQELASHARAYGDWLANPLSPGGR [P0A756] | 5.94 ± 0.44 | 5.15 ± 0.59 | 5.89 ± 0.62 | 5.99 ± 0.26 | 5.51 ± 0.33 | 2.94 ± 0.079 | 5.7 ± 1.1 | 10.6 ± 2.5 | 5.63 ± 0.52 | 10.74 ± 0.04 | 5.239 ± 0.0081 | 10.6 ± 0.47
MMSTTLFKDFTFEAAHRLPHVPEGHKCGRLHGHSFMVRLEITGEVDPHTGWIIDFAELKAAFKPTYERLDHHYLNDIPGLENPTSEVLAKWIWDQVKPVVPLLSAVMVKETCTAGCIYRGE | 4.72 ± 1 | 6.75 ± 0.54 | 5.07 | 6.5 ± 0.67 | 5.53 ± 0.14 | – | 6.53 ± 0.12 | 12.7 ± 0.82 | 7.08 | 13.1 ± 1.2 | 6.75 ± 0.27 | 13.2
MMTTILTIHVPSTPGRAWNMLVALQAGNIVARYAKLHLYDAFAIQESRRVDAGNEIAPLLEVEGMKVGLMTCYDLRFPELALAQALQGAEILVLPAAWVRGPLKEHHWSTLLAARALDTTCYMVAAGECGNKNIGQSRIIDPFGVTIAAASEMPALIMAEVTPERVRQVRAQLPVLNNRRFAPPQLL [P0DP64] | 7.53 | – | – | – | – | – | – | – | – | – | – | –
MMVIRPVERSDVSALMQLASKTGGGLTSLPANEATLSARIERAIKTWQGELPKSEQGYVFVLEDSETGTVAGICAIEVAVGLNDPWYNYRVGTLVHASKELNVYNALPTLFLSNDHTGSSELCTLFLDPDWRKEGNGYLLSKSRFMFMAAFRDKFNDKVVAEMRGVIDEHGYSPFWQSLGKRFFSMDFSRADFLCGTGQKAFIAELMPKHPIYTHFLSQEAQDVIGQVHPQTAPARAVLEKEGFRYRNYIDIFDGGPTLECDIDRVRAIRKSRLVEVAEGQPAQGDFPACLVANENYHHFRVVLVRTDPATERLILTAAQLDALKCHAGDRVRLVRLCAEEKTA [P0AE37] | 5.43 ± 0.59 | 2.85 ± 0.19 | 2.96 ± 0.92 | 2.88 ± 0.041 | 2.78 ± 0.33 | 2.58 ± 0.12 | 4.56 ± 0.31 | 9.68 ± 2.2 | 2.452 ± 0.0032 | 3.22 ± 0.69 | 4.07 ± 0.25 | 9.08 ± 0.78
